Laboratory results: the nanobody polyreactivity screen of Harvey et al. (2022)

Assay: yeast display, Sf9 membrane polyspecificity reagent, FACS + sequencing; frameworks hold sequencing errors
How it was run: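 Galactose-induced (36–48 hours) yeast carrying a synthetic nanobody display library were exposed to 10% biotinylated, detergent-solubilized Sf9 membrane reagent at 4 °C for 1 hour. FACS followed streptavidin microbead enrichment, using low and high (top ~1%) gates for expression (anti-HA) and reagent binding (streptavidin). Colony PCR, MiSeq 2 × 250 sequencing and CDR-length filtering followed. Labels for polyreactivity reflect the gate of origin.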

Sequence | polyreactivity (PSR sort gate)
QVQLVESGGGLVQAGGSLRLSCAASGFTLFYNAMGWYRQAPGKERELVAAITARGGGTYYADSVKGRFTISRDNAKNPVYLQMNSLKPEDTAVYYCAADSFIPPYDHWGQGTQVTVSS | low polyreactivity
QVQLVESGGGLVQAGGSLRLSCAASGFTLGSNAMGWYRQAPGKERELVAAISWDGGRTYYADSVKGRFTISRDNAKNTVYLQMNSLKPEDTAVYYCNRASYLRGTAGGDYWGQGTQVTVSS | high polyreactivity
QVQLVESGGGLVQAGGSLRLSCAASGFTLGTYAMGWYRQAPGKERELVASITVTGGSTYYADSVKGRFTISRDNAKNTVYLQMNSLKPEDTAVYYCAASYQHFRSVNPYDSWGQGTQVTVSS | low polyreactivity
QVQLVESGGGLVQAGGSLRLSCAASGFTLGWYAMGWYRQAPGKERELVAAISRSGGSTYYADSVKGRFTISRDNAKNTVYLQMNSLKPEDTAVYSCAAEVNYAGWAVWSYYWGQGTQVTVSS | high polyreactivity
QVQLVESGGGLVQAGGSLRLSCAASGFTLLIYAKGWYRQAPGKERELVAAITWRGSGTYYADSVKGRFTISRDIAKNSVYLQMNSLKPEDTAVYYCAARTARRTYDYWGQGTQVTVSS | low polyreactivity
QVQLVESGGGLVQAGGSLRLSCAASGFTLNGYAMGWYRQAPGKERELVAAISSSGGRTYYADSVKGRFTISRDNAKNTVYLQMNCLKPEDTAVYYCAAVVYYEDGYWGQGTQVTVSS | low polyreactivity
QVQLVESGGGLVQAGGSLRLSCAASGFTLQGYAMGWYRQAPGKERELVAAIRWIGTSTYYADSVKGRFTISRDYAKNTVYFQMNSLKPEDTAVYYCAAYRYNTPFGYWGQGTQVTVSS | high polyreactivity
QVQLVESGGGLVQAGGSLRLSCAASGFTLQVYDMGWYRQAPGKERELVADISGSGDSTNYADSVKGRFTISRDNAKNTVYLQMNSLKPEDNAVYYCAAEVRGGYYGYDYWGQGTQVTVSS | low polyreactivity
QVQLVESGGGLVQAGGSLRLSCAASGFTLRAYAMGWYRQAPGKERELVAAISSGGSTYADSVKGRFTISRDNAKNTVYLQMNSLKPEDTAVYYCAADGSKLFYSKFRYVQYGYWGQGTQVTVSS | high polyreactivity
QVQLVESGGGLVQAGGSLRLSCAASGFTLRAYAMGWYRQAPGKERELVAAITQRGTGTYYADSVKGRFTISRDNAKKTVFLQMNSLKPEDTAVYYCAAEAPRWSNYYYWGQGTQVSVSS | high polyreactivity
QVQLVESGGGLVQAGGSLRLSCAASGFTLRLNAMGWYRQAPGKERELVAAITTSDDGTYYADSVKGRFTISRDNAKNSVYLQLNSLKPEDTAVYYCAADYYSVLYDYWGQGTQVTVSS | low polyreactivity
QVQLVESGGGLVQAGGSLRLSCAASGFTLRRNAMGWYRQAPGKERELVAAISRGGSTYYADSVKGRFTISRDNAKNTVYLQMNSLKPEDTAVYYCNAGWFKYYPNLQAFNYWGQGTQVTVSS | high polyreactivity
QVQLVESGGGLVQAGGSLRLSCAASGFTLRYYAMGWYRQAPGKERELVAAITSGGGSTYYADSVKGRFTISRDNAKNTVYLQMNSLKPEDTAVYYCNAQYGSLYYAVVLSNIYNYWGQGTQVTVSS | high polyreactivity
QVQLVESGGGLVQAGGSLRLSCAASGFTLRYYAMGWYRQAPGKERELVADISWSGGRTYYADSVKGRFTISRDNAKNTVYLQMNSLKPEDTAVYYCAAVRYYAHVYKSVGYDYWGQGTQVTVSS | high polyreactivity
QVQLVESGGGLVQAGGSLRLSCAASGFTLTAYAMGWYRQPPGKERELVAAITYTGGSTYYADSVKGRFTISRDNAKNTVYLQMNSLKPEDTAGYYCAAEFLSVPYDYGYWGQGTQVTVSS | high polyreactivity
QVQLVESGGGLVQAGGSLRLSCAASGFTLTRNAMGCYRQAPGKERELVAAISWSGGTTYYADSVKGRFTISRDNAKNTVYLQMNSLKPEDTAVYYCNTASWRAQYYYWGQGTQVTVSS | high polyreactivity

Sequence | polyreactivity (PSR sort gate)
QVQLVESGGGLVQAGGSLRLSCAASGFTLVGYAMGWYRQAPGKERELVADINYSGGRTYYADSVKGRFTISRDNAKNTVYLQMNSLNPEDTAVYYCNAAGALSWFYYGYDYWGQGTQVTVSS | low polyreactivity
QVQLVESGGGLVQAGGSLRLSCAASGFTLVLNAMGWYRQAPGKERELVAAIRRSAGSTYYADSVKGRFTISRDNAKNTVYLQLNSLKPEDTAVYYCAACFLWAKYAYGHWGTFNYWGQGTQVTVSS | low polyreactivity
QVQLVESGGGLVQAGGSLRLSCAASGFTLWLNAMGWYRQAPGTERELVAAITTSDDGTYYADSVKGRFTISRDNAKNTVYLQMNSLKPEDTAVYYCAADYYSVLYDYWGQGTQVTVSS | low polyreactivity
QVQLVESGGGLVQAGGSLRLSCAASGFTLYGNVMGWYRQAPGKERELVASISWSGGNTYYADSVKGRFTISRDNAKNTVYLQMNSLKPEDTAVYYCNANYYDKYGYWGQGTQVTVSS | low polyreactivity
QVQLVESGGGLVQAGGSLRLSCAASGFTLYVYDMGWYRQAHGKERELVAAINGGGSTNYADSVKGRFTISRDNAKNTVYLQMNSLKPEDTAVYYCAAEDAYGRDVYYGSDYWGQGTLVTVSS | low polyreactivity
QVQLVESGGGLVQAGGSLRLSCAASGFTLYYYTMGWYRQAPGKERELVAAITSGGDTYYADSVKGRFTISRDNAKNTVYLQMNSLKPEDTAVYYCDAKKKYHYVASYKRFEYWGQGTQVTVSS | low polyreactivity
QVQLVESGGGLVQAGGSLRLSCAASGFTMARYAMGSYRQAPGKERELVAAISWSGGSTYYADSVKGRFTISRDNAKNTVYLQMNSLKPEDTAVYYCNAVYATRIGFDYWGQGTQVTVSS | high polyreactivity
QVQLVESGGGLVQAGGSLRLSCAASGFTNAMGWYRQAPGKERELVAAISYSGDSTNYADSVKGRFTISRDNAKNTVYLQMKSLKPEDSAVYYCNASSPYDYDWGQGTQVTVSS | low polyreactivity
QVQLVESGGGLVQAGGSLRLSCAASGFTSDTNAMGWYRQAAGKERELVAAIDSGGGSTYYADSVKGRFTISRENSKNTVYFQMNSLKPEDTAVYYCNAEQTPFVASLRVGEYGYWGQGTQVTVSS | low polyreactivity
QVQLVESGGGLVQAGGSLRLSCAASGFTSRANAMGWYRQAPWKESELVAVITAGGGSTSYADSVKGRFTISRDNAKNTVYLQMNSLKPEDTAVYYCASTWYGGPYKSYYYWGQGTQVTVSS | low polyreactivity
QVQLVESGGGLVQAGGSLRLSCAASGFTSRTYAMGWYRQAPGKERELVAAITFSGGSTYYADSVKGRFTISRDNAKNTVYLQMNSLKPEDTAVYYCARDGLWYNAIWEYDYWGQGTQVTVSS | high polyreactivity
QVQLVESGGGLVQAGGSLRLSCAASGFTSWDNDMGWYRQAPGKERELVAAISRGGSTNYADSVKGRFTISRDNAKNTVYLQMNSLNPEDTAVYYCAAEDWYQRYGYEYDYWGQGTQVTVSS | low polyreactivity
QVQLVESGGGLVQAGGSLRLSCAASGFTSWVYAMGWYRPAPGKERELVAAITWSTDDTYYADSVKGRFTISRDNSKNTVYIQINSLKPEDSAVYYCAAQQYTYVETWDGYDYWGQGTQVTVSS | low polyreactivity
QVQLVESGGGLVQAGGSLRLSCAASGFTSWYDMGWYRQAPGKEMELVAAISSGGSTNYADSVKGRFTISRDNAKNTVYLEMNSLKPEDTAVYYCNAECYETGVPYFGFYYWGQGTQVTVSS | low polyreactivity
QVQLVESGGGLVQAGGSLRLSCAASGFTVAYYAMGWYRQAPGKERELVAAITGSGGRTYYADSVKGRFTISRDNAKNTVYLQMTSLKPEDTAVYYCAALTGPYKAQVHGGHTPLDYWGHGTQVTVSS | low polyreactivity
QVQLVESGGGLVQAGGSLRLSCAASGFTVGYAMGWYRQAPGTERELVAAITRGGGTRTSYADSVKGRFTISRDNAKNTVYLQMNSLKPEDTAVYYCAARRWWSPRTQYDYWGQGTQVTVSS | high polyreactivity
